The Immune Epitope Database (IEDB)

How the values were obtained:
HLA-A*69:01 = assay: IEDB peptide-MHC binding, purified MHC/direct/fluorescence; filed as Kd, often an IC50 or EC50 that approximates it; ≥ and ≤ were set here for values at or beyond the usual limits of such assays
HLA-B*27:05 = assay: as above; settings: source organism: Homo sapiens
HLA-A*02:06 = assay: IEDB peptide-MHC binding, purified MHC/competitive/radioactivity; filed as Kd, often an IC50 or EC50 that approximates it; ≥ and ≤ were set here for values at or beyond the usual limits of such assays
HLA-A*02:02 = assay: as above
HLA-A*02:03 = assay: as above
HLA-A*02:01 = assay: IEDB peptide-MHC binding, purified MHC/direct/fluorescence; filed as Kd, often an IC50 or EC50 that approximates it; ≥ and ≤ were set here for values at or beyond the usual limits of such assays
HLA-B*40:01 = assay: as above
HLA-A*01:01 = assay: IEDB peptide-MHC binding, purified MHC/competitive/radioactivity; filed as Kd, often an IC50 or EC50 that approximates it; ≥ and ≤ were set here for values at or beyond the usual limits of such assays; settings: source organism: Dengue virus 3 Martinique/1243/1999
HLA-A*11:01 = assay: IEDB peptide-MHC binding, purified MHC/direct/fluorescence; filed as Kd, often an IC50 or EC50 that approximates it; ≥ and ≤ were set here for values at or beyond the usual limits of such assays
HLA-B*07:02 = assay: as above
HLA-B*58:01 = assay: as above
HLA-A*31:01 = assay: as above
HLA-B*15:01 = assay: as above
HLA-A*03:01 = assay: as above
[1] = source organism: Vaccinia virus WR
[2] = source organism: Mammarenavirus lassaense
[3] = source organism: SARS coronavirus Tor2
[4] = source organism: Lymphocytic choriomeningitis virus (strain Armstrong)
[5] = source organism: Vaccinia virus Copenhagen
[6] = source organism: Vibrio cholerae
[7] = source organism: Escherichia coli
[8] = source organism: Bacillus anthracis
[9] = source organism: Pseudomonas aeruginosa
[10] = source organism: Escherichia coli O157:H7
[11] = source organism: Mammarenavirus whitewaterense
[12] = source organism: Mammarenavirus tacaribeense
[13] = source organism: Entamoeba histolytica HM-1:IMSS

Sequence | Kd (HLA-A*02:06; [1]) [nM] | Kd (HLA-A*02:02; [1]) [nM] | Kd (HLA-A*02:03; [1]) [nM] | further results
AHSTIMPRL | – | – | – | Kd (HLA-A*69:01; source organism: Homo sapiens): 832 nM; Kd (HLA-B*27:05): 8620 nM
VIPFDDIVRT | 18200 | ≥ 62700 | ≥ 50300 | –
ALKNSQAEL | ≥ 32900 | 70.9 | 16.8 | –
TLKDAMLQL | – | – | – | Kd (HLA-A*02:01; [2]): 116 nM
TLLCVLAALV | – | – | – | Kd (HLA-A*02:06; [3]): 64.6 nM; Kd (HLA-A*02:02; [3]): 4.61 nM; Kd (HLA-A*02:03; [3]): 77.4 nM
KINNNRIVAM | 3190 | 9120 | 1300 | –
FSLGAAVKA | – | – | – | Kd (HLA-A*02:06; [4]): 327 nM; Kd (HLA-A*02:02; [4]): 6460 nM; Kd (HLA-A*02:03; [4]): 13300 nM
QQNNSFIIST | 5710 | 7000 | 5040 | –
ALWDSNFFT | ≥ 23100 | 1060 | ≥ 28200 | –
LIAGIILLIL | – | – | – | Kd (HLA-A*02:06; [5]): 345 nM; Kd (HLA-A*02:02; [5]): 141 nM; Kd (HLA-A*02:03; [5]): 680 nM
GEGGVGSIL | – | – | – | Kd (HLA-B*40:01; source organism: Mycobacterium tuberculosis): 33 nM
EMQLKIDKLT | ≥ 69800 | 9660 | 6820 | –
NTISGNIYSA | 393 | 269 | 314 | –
CVSNLDISSV | 47.9 | 51.8 | 2.3 | –
NITHTNITTL | 8170 | 10400 | 5020 | –
GLYIPGTSV | 1740 | 111 | 16.6 | –
ITDFAGKTV | – | – | – | Kd (HLA-A*01:01): ≥ 20300 nM
PMSRLFMDEI | 4370 | 1930 | 726 | –
SIVCIVAAV | 3.54 | 3.91 | 2.82 | –
KIDILQMREI | 875 | 1280 | 414 | –
WLRAKRKPAM | 11900 | 4670 | ≥ 20100 | –
FLYIIKLVFL | – | – | – | Kd (HLA-A*02:06; [3]): 865 nM; Kd (HLA-A*02:02; [3]): 7.28 nM; Kd (HLA-A*02:03; [3]): 22.4 nM
LAYYNSCMLT | 86.2 | 12.1 | 15.9 | –

Sequence | Kd (HLA-A*02:06; [1]) [nM] | Kd (HLA-A*02:02; [1]) [nM] | Kd (HLA-A*02:03; [1]) [nM] | further results
YVGDTSMMVI | 324 | 408 | 220 | –
RIITILQDIV | 94.8 | 595 | 209 | –
QIMECSRML | 948 | 620 | 1380 | –
TLVPQEHYV | – | – | – | Kd (HLA-A*69:01; source organism: SARS-CoV1): 79.5 nM; Kd (HLA-A*11:01; source organism: SARS-CoV1): ≥ 43200 nM; Kd (HLA-A*02:01; source organism: SARS-CoV1): 119 nM
NILGGVLHT | 9960 | ≥ 77800 | ≥ 20600 | –
YVVIVENDNV | 59.7 | 2330 | 11000 | –
FPEHIFPAL | – | – | – | Kd (HLA-B*07:02; source organism: Mus musculus): 937 nM; Kd (HLA-A*69:01; source organism: Mus musculus): 2330 nM; Kd (HLA-B*40:01; source organism: Mus musculus): 278 nM
EMVEYLENQL | 420 | 212 | 209 | –
STAIELGAW | – | – | – | Kd (HLA-B*58:01; [2]): 13.3 nM
KLSNAKWLA | – | – | – | Kd (HLA-A*31:01; [6]): 1630 nM; Kd (HLA-A*02:01; [6]): 413 nM; Kd (HLA-B*15:01; [6]): 1630 nM
SILNNPVDT | 14200 | ≥ 47100 | ≥ 30600 | –
RRNNRVFFR | – | – | – | Kd (HLA-A*31:01; [7]): 17.7 nM; Kd (HLA-A*03:01; [7]): ≥ 20000 nM
ILGTVSWNL | – | – | – | Kd (HLA-A*69:01; source organism: SARS-CoV1): ≥ 22900 nM; Kd (HLA-B*58:01; source organism: SARS-CoV1): 804 nM; Kd (HLA-A*02:01; source organism: SARS-CoV1): 382 nM
KMNNDVFFM | – | – | – | Kd (HLA-A*69:01; [8]): 618 nM; Kd (HLA-A*02:01; [8]): 2.3 nM
DIKYISRDEL | 2060 | 2550 | 9570 | –
LQKVPHTRY | – | – | – | Kd (HLA-A*31:01; [9]): 17200 nM; Kd (HLA-B*15:01; [9]): 476 nM
VIIMAINVFT | 674 | 320 | 820 | –
FVATFRDMLL | 4.36 | 0.697 | 17.6 | –
FLNRFTTTL | – | – | – | Kd (HLA-A*02:06; [3]): 58.1 nM; Kd (HLA-A*02:02; [3]): 0.659 nM; Kd (HLA-A*02:03; [3]): 1.02 nM
EIDVSEVKT | ≥ 77100 | ≥ 46000 | ≥ 78100 | –
ELVMDKNHAI | ≥ 69800 | 14200 | ≥ 70400 | –
IMEIVSHLRA | 4410 | 955 | 396 | –
TIAHINTLI | 571 | 21.4 | 20 | –

Sequence | Kd (HLA-A*02:06; [1]) [nM] | Kd (HLA-A*02:02; [1]) [nM] | Kd (HLA-A*02:03; [1]) [nM] | further results
GIKGLDERFV | 940 | 6190 | 844 | –
ATCALVSDCA | 9140 | ≥ 34700 | ≥ 23400 | –
DITNILGGVL | 18900 | 12300 | 3680 | –
NVQSLIKFI | 10500 | 12900 | 6020 | –
VLFIHPLDA | – | – | – | Kd (HLA-A*69:01; [10]): ≥ 20000 nM; Kd (HLA-A*02:01; [10]): 64.9 nM
NQAAVLMGL | – | – | – | Kd (HLA-A*02:06; source organism: Dengue virus 4 Philippines/H241/1956): 6.98 nM
KVTVPTNDHI | 3600 | 4710 | 1240 | –
VQYENLKYTV | – | – | – | Kd (HLA-A*02:06; source organism: Dengue virus 3 Martinique/1243/1999): 61 nM
SLSNLDFRL | 1380 | 1310 | 1760 | –
MVMCGGSLYV | – | – | – | Kd (HLA-A*02:06; [3]): 13.2 nM; Kd (HLA-A*02:02; [3]): 15.1 nM; Kd (HLA-A*02:03; [3]): 10.3 nM
TVGMSIVCIV | 200 | 528 | 468 | –
VMDTLNGIMM | 403 | 7.64 | 5160 | –
YVSPTEMVDV | 5.16 | 63.3 | 49.8 | –
LNASYITPYV | – | – | – | Kd (HLA-A*02:06; [11]): 37.7 nM; Kd (HLA-A*02:02; [11]): 33.2 nM; Kd (HLA-A*02:03; [11]): 1070 nM
ASHFISNSW | – | – | – | Kd (HLA-A*11:01; source organism: SARS-CoV1): ≥ 53000 nM; Kd (HLA-B*58:01; source organism: SARS-CoV1): 72 nM; Kd (HLA-B*15:01; source organism: SARS-CoV1): 11400 nM
ALTDVEKRIL | 934 | 96.9 | 127 | –
LMELPVKTDI | 12900 | 1510 | 986 | –
LTLKPCHAL | – | – | – | Kd (HLA-B*07:02; source organism: Brucella suis): 1960 nM; Kd (HLA-A*69:01; source organism: Brucella suis): 546 nM; Kd (HLA-A*11:01; source organism: Brucella suis): 18000 nM; Kd (HLA-A*02:01; source organism: Brucella suis): 4760 nM
NVDVGCLLT | ≥ 64500 | 9850 | 14000 | –
NVSRVVECLT | ≥ 10000 | 4660 | 14300 | –
NLETYTRPEI | 636 | 539 | 1500 | –
AILHNIYRL | 43.8 | 106 | 814 | –
NIYRLFTRCA | 22.9 | 9890 | 138 | –

Sequence | Kd (HLA-A*02:06; [1]) [nM] | Kd (HLA-A*02:02; [1]) [nM] | Kd (HLA-A*02:03; [1]) [nM] | further results
DVQRTRCKYV | 9510 | 1070 | 6470 | –
PLHIVCSKTV | ≥ 27000 | ≥ 34500 | 5270 | –
IMRNFLRSIA | 544 | 59.9 | 122 | –
NLLEQLIENI | 396 | 836 | 1440 | –
SQAKKPEVRI | 5860 | 10700 | 2370 | –
MLIIFWFSL | – | – | – | Kd (HLA-A*02:06; [3]): 490 nM; Kd (HLA-A*02:02; [3]): 132 nM; Kd (HLA-A*02:03; [3]): 13000 nM
FLCLFLLPSL | – | – | – | Kd (HLA-A*02:06; [3]): 0.373 nM; Kd (HLA-A*02:02; [3]): 0.531 nM; Kd (HLA-A*02:03; [3]): 2.86 nM
ETIQKDINI | ≥ 34900 | ≥ 36600 | ≥ 50800 | –
GVSGLYIPGT | 31.7 | 140 | 2150 | –
FTILEYLYIM | 40.5 | 355 | 3200 | –
MNNVVQALT | – | – | – | Kd (HLA-A*02:06; [12]): ≥ 77000 nM; Kd (HLA-A*02:02; [12]): 2280 nM; Kd (HLA-A*02:03; [12]): ≥ 21500 nM
LTNAISSRV | 145 | 146 | 18.6 | –
SVDIETAIRA | 1030 | 2830 | 7620 | –
YIALCKVTV | 18.8 | 12.2 | 24 | –
KIQLFSDFTI | ≥ 69800 | ≥ 70000 | ≥ 70400 | –
NVIGLIVIL | 15.1 | 84.9 | 2400 | –
RLRYNLCKYL | 15700 | 261 | 0.304 | –
YTFAISYCRA | 37.4 | 325 | 37.6 | –
TINVNSLAL | 2180 | 1980 | 1540 | –
KYWRQMIIK | – | – | – | Kd (HLA-A*31:01; [13]): 24.9 nM; Kd (HLA-A*03:01; [13]): ≥ 20000 nM
PTIEDDKIVT | ≥ 69800 | 13800 | ≥ 20600 | –
ELEKCTSEI | ≥ 57900 | ≥ 21100 | ≥ 56000 | –
DIIDLLLPST | 284 | 14500 | 6590 | –
